Molecular target: angiotensin-converting enzyme-2 (ACE2) with the neck domain (UniProt Q9BYF1)
Test: mass photometry; proteins measured alone, non-labelled, in solution; counts of monomer, dimer and trimer species; ACE2 at 10 nM

Work on “angiotensin-converting enzyme-2 (ACE2) with the neck domain (from UniProt Q9BYF1 18-740) (receptor)” yielded a stoichiometry N of 2.

Reference: PMC9680610
